For 1 substance, RU, second antibody with first antibody present, RU, direct binding of second antibody and % inhibition of second antibody binding results are on record in US20060280740A1.

Test [1] addresses KIR2DL1 recombinant protein (entire extracellular domain, produced in E. coli, immobilized on Biacore chip) (human) (UniProt P43626). Put plainly: SPR, KIR2DL1 chip; second Ab after first Ab EB6.
Test [2] has the same target. Kind of test: SPR, KIR2DL1 chip; second Ab after first Ab 1-6 F1. (In general: Surface plasmon resonance follows binding to a sensor surface in real time, without labels.)
Test [3] shares this target. Kind of test: SPR, KIR2DL1 chip; second Ab after first Ab 1-7 F9.
Test [4] has the same target. Put plainly: SPR, KIR2DL1 chip; second Ab alone (field of first Ab EB6).
Test [5] has the same target. Kind of test: SPR competition, KIR2DL1 chip; competitor (second Ab) DF200.
Test [6] has the same target. Kind of test: SPR competition, KIR2DL1 chip; competitor (second Ab) Pan2D.
For test [7] the target is unchanged. Put plainly: SPR competition, KIR2DL1 chip; competitor (second Ab) 1-4 F1.
For test [8] the target is unchanged. Put plainly: SPR competition, KIR2DL1 chip; competitor (second Ab) 1-6 F1.
Test [9] has the same target. Put plainly: SPR competition, KIR2DL1 chip; competitor (second Ab) 1-7 F9.
Test [10] shares this target. Kind of test: SPR, KIR2DL1 chip; second Ab alone (field of first Ab 1-6 F1).
Test [11] has the same target. Put plainly: SPR, KIR2DL1 chip; second Ab alone (field of first Ab 1-7 F9).
The target is the same in test [12]. Put plainly: SPR competition, KIR2DL1 chip; competitor (second Ab) EB6 (self).

KIR2DL1 recombinant protein (entire extracellular domain, produced in E. coli, immobilized on Biacore chip) (human), sequence (P43626 22-245): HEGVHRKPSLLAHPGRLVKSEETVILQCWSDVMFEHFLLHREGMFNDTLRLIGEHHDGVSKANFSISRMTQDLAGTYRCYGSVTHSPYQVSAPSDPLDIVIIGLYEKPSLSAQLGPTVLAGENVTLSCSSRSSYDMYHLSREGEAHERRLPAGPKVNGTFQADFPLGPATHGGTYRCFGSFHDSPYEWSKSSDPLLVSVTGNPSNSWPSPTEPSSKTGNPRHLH

On to EB6 (IgG1 anti KIR2DL1) (antibody), for which the RU, second antibody with first antibody present in test [1] worked out at 200 RU; in test [2], 320 RU; in test [3], 180 RU. The RU, direct binding of second antibody in test [4] is 460 RU; in [10], 260 RU; in test [11] it was 460 RU. For the same substance, the % inhibition of second antibody binding in [5] turned out to be 60%; in test [6], 40%; in [7], 48%; in test [8] it was 23%; in test [9], 65%; in test [12], 57%.
